# In patent US6858210B1, “Therapeutic and diagnostic domain 1 β2GPI polypeptides and methods of using same” (La Jolla Pharmaceutical Co., priority 1998, dated 2005):
# Where “and” joins values, the source holds several entries; their conditions need not be identical. Equal entries are not always repeated. Where two headings read alike, the source gives them in different places.
# B1: recombinant β2GPI domain 5 with GlyHis6 (----5) (protein)
# chain: GRASCKLPVKKATVVYQGERVKIQEKFKNGMLHGDKVSFFCKNKEKKCSYTEDAQCIDGTIEVPKCFKEHSSLAFWKTDASDVKPCGHHHHHH
# B2: 1----: recombinant β2GPI protein with domain 1 only (SEQ ID NO:4 region), His6 tail (protein)
# chain: GRTCPKPDDLPFSTVVPLKTFYEPGEEITYSCKPGYVSRGGMRKFICPLTGLWPINTLKCTPRVGHHHHHH
# B3: 12345: recombinant full length human β2GPI (domains 1-5) with C-terminal GlyHis6, baculovirus expressed (protein)
# chain: GRTCPKPDDLPFSTVVPLKTFYEPGEEITYSCKPGYVSRGGMRKFICPLTGLWPINTLKCTPRVCPFAGILENGAVRYTTFEYPNTISFSCNTGFYLNGADSAKCTEEGKWSPELPVCAPIICPPPSIPTFATLRVYKPSAGNNSLYRDTAVFECLPQHAMFGNDTITCTTHGNWTKLPECREVKCPFPSRPDNGFVNYPAKPTLYYKDKATFGCHDGYSLDGPEEIECTKLGNWSAMPSCKASCKLPVKKATVVYQGERVKIQEKFKNGMLHGDKVSFFCKNKEKKCSYTEDAQCIDGTIEVPKCFKEHSSLAFWKTDASDVKPCGHHHHHH
# Columns and labels:
# [1] = test system: affinity purified β2GPI-dependent antiphospholipid antibody; experiment: Competitive inhibition ELISA: recombinant β2GPI proteins compete for antibody binding to coated full length recombinant β2GPI; design: species or system human; details: for IC50: read-out: 50% (concentration to give 50% inhibition)
# Outline: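 Wells coated with full-length recombinant β2GPI (10 μg/ml, pH 9.5) and milk-blocked. Serially diluted recombinant β2GPI proteins were co-incubated with a fixed concentration of patient antibody for 1 h at 37 °C. Bound IgG detected with alkaline phosphatase anti-human IgG at OD550; percent inhibition is background-corrected against inhibitor-free wells.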
# [2] = test system: affinity purified β2GPI-dependent antiphospholipid antibody; experiment: Direct binding ELISA, nickel chelate-coated wells charged with recombinant β2GPI proteins (no cardiolipin); design: species or system human; details: O.D. at 550 nm
# Outline: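 His-tagged recombinant β2GPI mutants captured on nickel chelate wells in serial dilution (2 h, room temperature), no anionic phospholipid; GST-6his as negative control. Affinity-purified patient antibodies (11 patients) or rabbit anti-β2GPI detected by alkaline phosphatase anti-IgG, OD 550 nm.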
# rabbit anti-β2GPI = experiment: Direct binding ELISA, nickel chelate-coated wells, rabbit antibody; details: O.D. at 550 nm
# Experimental: Nickel Chelate-coated microwell plates (NCP 010 00 Xenopore Corp. 374 Midland Ave. Saddle Brook, N.J. USA) were coated with 50 μl of serial dilutions of the various recombinant β2GPI, in PBS, at room temperature for 2 hours. The plates were washed three times with PBS and blocked with 75 μl of a 1% gelatin (Sigma #G-2500) in PBS for one hour room temperature. […] The plates were washed three times with PBS, 50 μl of alkaline phosphatase conjugated anti-immunoglobulin (anti-human IgG, gamma chain specific, Zymed #62-8422) or anti-rabbit IgG (Zymed #62-6122) diluted appropriately in 1% gelatin was added and incubated at 37° C. for one hour. The plates were washed three times with PBS, 50 μl of alkaline phosphatase PPMP chromogenic substrate solution was added and incubated for 30 minutes at room temperature. The optical density, at 550 nm, was determined by reading the plates in a microplate autoreader (Bio-Teck Instruments, model EL311).
# Seven to nine different recombinant β2GPI mutant proteins were examined to determine if they could support the direct binding of affinity purified β2GPI-dependent antiphospholipid antibody preparations in the absence of anionic phospholipid. All recombinant mutant β2GPI were assayed with affinity purified β2GPI-dependent antiphospholipid antibody preparations from 11 different patients. Each mutant recombinant β2GPI protein was tested, in a dose dependent fashion and GST-6his was included as a negative control. The recombinant mutant β2GPI proteins were bound to nickel coated microtiter plates via their 6-his tail. All recombinant mutant β2GPI proteins tested bound rabbit anti-β2GPI showing that they were assessable by antibody (FIG. 5).
molecule,measurement,setting,value
B1,Max (maximum inhibition observed at concentrations tested),[1]; Ab 6203,5%
same,IC50,[1]; Ab 6203,> 47 µM
same,Max (maximum inhibition observed at concentrations tested),[1]; Ab 6501,10%
same,IC50,[1]; Ab 6501,> 47 µM
same,Max (maximum inhibition observed at concentrations tested),[1]; Ab 6509,10%
same,IC50,[1]; Ab 6509,> 47 µM
same,Max (maximum inhibition observed at concentrations tested),[1]; Ab 6626,10%
same,IC50,[1]; Ab 6626,> 47 µM
same,Max (maximum inhibition observed at concentrations tested),[1]; Ab 6632,10%
same,IC50,[1]; Ab 6632,> 47 µM
same,Max (maximum inhibition observed at concentrations tested),[1]; Ab 6641,10%
same,IC50,[1]; Ab 6641,> 47 µM
same,Max (maximum inhibition observed at concentrations tested),[1]; Ab 6644,10%
same,IC50,[1]; Ab 6644,> 47 µM
same,Max (maximum inhibition observed at concentrations tested),[1]; Ab 6652,15%
same,IC50,[1]; Ab 6652,> 47 µM
same,Max (maximum inhibition observed at concentrations tested),[1]; Ab 6701,10%
same,IC50,[1]; Ab 6701,> 47 µM
same,Max (maximum inhibition observed at concentrations tested),[1]; Ab 7008,20%
same,IC50,[1]; Ab 7008,> 47 µM
same,Max (maximum inhibition observed at concentrations tested),[1]; Ab 7015,10%
same,IC50,[1]; Ab 7015,> 47 µM
same,Max (maximum inhibition observed at concentrations tested),[1]; Ab 7101,5%
same,IC50,[1]; Ab 7101,> 47 µM
same,Max (maximum inhibition observed at concentrations tested),[1]; Ab 7104,0%
same,IC50,[1]; Ab 7104,> 47 µM
same,Maximum O.D.,[2]; Ab 6203,0.044
same,Maximum O.D.,[2]; Ab 6501,0.004
same,Maximum O.D.,[2]; Ab 6626,0.028
same,Maximum O.D.,[2]; Ab 6632,0.013
same,Maximum O.D.,[2]; Ab 6641,0.018
same,Maximum O.D.,[2]; Ab 6644,0.017
same,Maximum O.D.,[2]; Ab 6652,0.012
same,Maximum O.D.,[2]; Ab 6701,0.000
same,Maximum O.D.,[2]; Ab 7008,0.007
same,Maximum O.D.,[2]; Ab 7015,0.078
same,Maximum O.D.,[2]; Ab 7101,0.078
same,Maximum O.D.,rabbit anti-β2GPI,1.663
B2,Max (maximum inhibition observed at concentrations tested),[1]; Ab 6203,60%
same,Max (maximum inhibition observed at concentrations tested),"[1]; Ab 6203, listed as 1 - - - -",20%
same,IC50,[1]; Ab 6203,> 10 µM
same,Max (maximum inhibition observed at concentrations tested),[1]; Ab 6501,70%
same,Max (maximum inhibition observed at concentrations tested),"[1]; Ab 6501, listed as 1 - - - -",30%
same,IC50,"[1]; Ab 6501, listed as 1 - - - -",> 10 µM
same,Max (maximum inhibition observed at concentrations tested),[1]; Ab 6626,85%
same,Max (maximum inhibition observed at concentrations tested),"[1]; Ab 6626, listed as 1 - - - -",50%
same,IC50,"[1]; Ab 6626, listed as 1 - - - -",> 10 µM
same,IC50,[1]; Ab 6626,8 µM and > 10 µM
same,Max (maximum inhibition observed at concentrations tested),[1]; Ab 6632,90%
same,Max (maximum inhibition observed at concentrations tested),"[1]; Ab 6632, listed as 1 - - - -",70%
same,IC50,"[1]; Ab 6632, listed as 1 - - - -",3 µM
same,IC50,[1]; Ab 6632,8 µM
same,Max (maximum inhibition observed at concentrations tested),[1]; Ab 6641,98%
same,IC50,[1]; Ab 6641,> 10 µM
same,Max (maximum inhibition observed at concentrations tested),[1]; Ab 6644,90%
same,Max (maximum inhibition observed at concentrations tested),"[1]; Ab 6644, listed as 1 - - - -",45%
same,IC50,"[1]; Ab 6644, listed as 1 - - - -",> 10 µM
same,IC50,[1]; Ab 6644,8 µM and > 10 µM
same,Max (maximum inhibition observed at concentrations tested),[1]; Ab 6701,80%
same,IC50,[1]; Ab 6701,4 µM
same,Max (maximum inhibition observed at concentrations tested),[1]; Ab 7008,70%
same,Max (maximum inhibition observed at concentrations tested),"[1]; Ab 7008, listed as 1 - - - -",40%
same,IC50,[1]; Ab 7008,> 10 µM
same,Max (maximum inhibition observed at concentrations tested),[1]; Ab 7015,90%
same,Max (maximum inhibition observed at concentrations tested),"[1]; Ab 7015, listed as 1 - - - -",30%
same,IC50,"[1]; Ab 7015, listed as 1 - - - -",> 10 µM
same,IC50,[1]; Ab 7015,8 µM and > 10 µM
same,Max (maximum inhibition observed at concentrations tested),[1]; Ab 7101,70%
same,Max (maximum inhibition observed at concentrations tested),"[1]; Ab 7101, listed as 1 - - - -",20%
same,IC50,"[1]; Ab 7101, listed as 1 - - - -",> 10 µM
same,IC50,[1]; Ab 7101,8 µM and > 10 µM
same,Max (maximum inhibition observed at concentrations tested),[1]; Ab 7104,90%
same,IC50,[1]; Ab 7104,0.8 µM
same,Maximum O.D.,[2]; Ab 6203,1.029
same,Maximum O.D.,[2]; Ab 6501,0.911
same,Maximum O.D.,[2]; Ab 6626,0.560
same,Maximum O.D.,[2]; Ab 6632,0.351
same,Maximum O.D.,[2]; Ab 6641,0.252
same,Maximum O.D.,[2]; Ab 6644,0.493
same,Maximum O.D.,[2]; Ab 6652,0.262
same,Maximum O.D.,[2]; Ab 6701,0.388
same,Maximum O.D.,[2]; Ab 7008,0.195
same,Maximum O.D.,[2]; Ab 7015,1.102
same,Maximum O.D.,[2]; Ab 7101,0.804
same,Maximum O.D.,rabbit anti-β2GPI,1.9737
B3,Max (maximum inhibition observed at concentrations tested),[1]; Ab 6203,75%
same,IC50,[1]; Ab 6203,0.8 µM
same,Max (maximum inhibition observed at concentrations tested),[1]; Ab 6501,80%
same,IC50,[1]; Ab 6501,0.2 µM
same,Max (maximum inhibition observed at concentrations tested),[1]; Ab 6509,70%
same,IC50,[1]; Ab 6509,0.1 µM
same,Max (maximum inhibition observed at concentrations tested),[1]; Ab 6626,80%
same,IC50,[1]; Ab 6626,0.3 µM
same,Max (maximum inhibition observed at concentrations tested),[1]; Ab 6632,90%
same,IC50,[1]; Ab 6632,0.8 µM
same,Max (maximum inhibition observed at concentrations tested),[1]; Ab 6641,96%
same,IC50,[1]; Ab 6641,0.1 µM
same,Max (maximum inhibition observed at concentrations tested),[1]; Ab 6644,90%
same,IC50,[1]; Ab 6644,0.2 µM
same,Max (maximum inhibition observed at concentrations tested),[1]; Ab 6652,95%
same,IC50,[1]; Ab 6652,0.8 µM
same,Max (maximum inhibition observed at concentrations tested),[1]; Ab 6701,100%
same,IC50,[1]; Ab 6701,0.1 µM
same,Max (maximum inhibition observed at concentrations tested),[1]; Ab 7008,90%
same,IC50,[1]; Ab 7008,0.2 µM
same,Max (maximum inhibition observed at concentrations tested),[1]; Ab 7015,90%
same,IC50,[1]; Ab 7015,0.2 µM
same,Max (maximum inhibition observed at concentrations tested),[1]; Ab 7101,80%
same,IC50,[1]; Ab 7101,0.8 µM
same,Max (maximum inhibition observed at concentrations tested),[1]; Ab 7104,90%
same,IC50,[1]; Ab 7104,0.8 µM
same,Maximum O.D.,[2]; Ab 6203,1.270
same,Maximum O.D.,[2]; Ab 6501,1.772
same,Maximum O.D.,[2]; Ab 6626,1.527
same,Maximum O.D.,[2]; Ab 6632,1.419
same,Maximum O.D.,[2]; Ab 6641,2.555
same,Maximum O.D.,[2]; Ab 6644,1.848
same,Maximum O.D.,[2]; Ab 6652,0.640
same,Maximum O.D.,[2]; Ab 6701,0.948
same,Maximum O.D.,[2]; Ab 7008,1.380
same,Maximum O.D.,[2]; Ab 7015,1.864
same,Maximum O.D.,[2]; Ab 7101,1.257
same,Maximum O.D.,rabbit anti-β2GPI,2.065
